Measurements: patent publication EP4793287A1, “TUMOR MICROENVIRONMENT SPECIFICALLY ACTIVATED CD47 ANTIBODY” (Affinity (Shanghai) Biopharmaceutical Co., Ltd., priority 2023, dated 2025)

Biological target: T1, binding of CD47 on Raji cells to SIRPα (Homo sapiens, UniProt Q08722)
T1 construct: endogenous in cells; host or cells: Raji
Test: Blocking of SIRPα binding on Raji cells (FACS)
Assay type: cell-based
Procedure: The required cell line, Raji (cultured in RPMI-1640 (ATCC Modification, Gibco, Cat# A10491-01) + 10% FBS (BI, Cat# 04-001-1A) + 1× P/S), was expanded to the logarithmic phase. Cells were collected and pipetted to create a single-cell suspension, followed by centrifugation and removal of the supernatant. The cells were resuspended in FACS buffer (PBS + 2% FBS) and counted, and the cell density was adjusted to 2×10^6/ml. 100 µl/well of this suspension was added to a 96-well plate (Corning, Cat# 3799). After centrifugation and removal of the supernatant, 100 µl/well of the antibody sample to be tested (CD47 Antibodies at an initial concentration of 200 nM, with 5-fold gradient dilutions and 8 dilution points, mixed with an equal volume of Human SIRP alpha, mFc (DIMA Biotech, Cat# PME100531) at 16 µg/ml) was added, mixed with the cells, and incubated at 4 °C for 1 hour. Cells were washed by centrifugation with FACS buffer for three times, then added with 100 µl/well of Goat F(ab')2 Anti-Mouse IgG-Fc (PE), pre-adsorbed (abcam, Cat# ab98742, 1:200 dilution) and incubated at 4 °C for 1 hour. After three washes with FACS buffer by centrifugation, the cells were resuspended in 200 µl/well of FACS buffer and analyzed using FACS (BECKMAN COULTER, CytoFLEX). Data were fitted and the results were analyzed using software (GraphPad Prism 8).

T1 sequence (Q08722 19-323): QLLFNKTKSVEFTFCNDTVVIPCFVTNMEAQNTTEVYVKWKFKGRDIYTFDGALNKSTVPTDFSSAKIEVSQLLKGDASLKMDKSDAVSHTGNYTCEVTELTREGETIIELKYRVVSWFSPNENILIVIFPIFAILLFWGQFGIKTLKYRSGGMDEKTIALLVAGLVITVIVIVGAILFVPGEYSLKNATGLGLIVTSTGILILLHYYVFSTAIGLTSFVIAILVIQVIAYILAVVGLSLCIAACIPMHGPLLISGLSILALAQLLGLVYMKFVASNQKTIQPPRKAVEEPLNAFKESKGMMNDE

B1: CD47 TMEAbody: CD47 TMEAbody conjugated with PEG of approximately 20K molecular weight (i.e., PEG20K) (conjugate)
VH: QQQLEESGGGLVKPEGSLTLTCTASGFSFSSGYDMCWVRQAPGRGLEWIACIYTRSSGGTCYASWAKGRFTISKTSSTVDLRMTSLTAADTATYFCAGGRSSYRLNLWGQGALVTVSS
VL: DVVMTQTPSPVEAAVGGTVTIKCQASQSISNELSWYQQKPGQPPKLLIYRASTLESGVSSRFKGSGSGTEFTLTISDLECADAATYYCQSTFYGDYGNAFGGGTEVVVK
Question: Which results are given for B1?
Answer: activity in blocking the binding of CD47 on Raji cells to SIRPα (after the CD47 TMEAbody was activated): restored; activity in blocking the binding of CD47 on Raji cells to SIRPα (not activated): significantly reduced
